Experimental data as given in IntAct's records for PubMed 16959574.

Target: gsk3b_human GSK3B (UniProt P49841)
Sequence (P49841 whole entry, looked up): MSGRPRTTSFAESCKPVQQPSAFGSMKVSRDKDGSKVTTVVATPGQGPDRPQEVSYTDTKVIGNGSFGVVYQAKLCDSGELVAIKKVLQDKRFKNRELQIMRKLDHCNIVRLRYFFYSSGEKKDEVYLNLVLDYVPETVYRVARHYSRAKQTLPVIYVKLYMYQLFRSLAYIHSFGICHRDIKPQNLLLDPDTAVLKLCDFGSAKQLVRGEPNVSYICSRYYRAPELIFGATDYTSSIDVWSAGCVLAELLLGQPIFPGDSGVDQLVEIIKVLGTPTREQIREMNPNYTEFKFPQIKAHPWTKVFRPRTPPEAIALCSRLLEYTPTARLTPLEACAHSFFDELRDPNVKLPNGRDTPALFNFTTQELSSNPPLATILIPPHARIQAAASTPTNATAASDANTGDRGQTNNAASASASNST

Chain of Tuberin (Rattus norvegicus (Rat)), P49816 S1389A (P49816 whole entry S1389A): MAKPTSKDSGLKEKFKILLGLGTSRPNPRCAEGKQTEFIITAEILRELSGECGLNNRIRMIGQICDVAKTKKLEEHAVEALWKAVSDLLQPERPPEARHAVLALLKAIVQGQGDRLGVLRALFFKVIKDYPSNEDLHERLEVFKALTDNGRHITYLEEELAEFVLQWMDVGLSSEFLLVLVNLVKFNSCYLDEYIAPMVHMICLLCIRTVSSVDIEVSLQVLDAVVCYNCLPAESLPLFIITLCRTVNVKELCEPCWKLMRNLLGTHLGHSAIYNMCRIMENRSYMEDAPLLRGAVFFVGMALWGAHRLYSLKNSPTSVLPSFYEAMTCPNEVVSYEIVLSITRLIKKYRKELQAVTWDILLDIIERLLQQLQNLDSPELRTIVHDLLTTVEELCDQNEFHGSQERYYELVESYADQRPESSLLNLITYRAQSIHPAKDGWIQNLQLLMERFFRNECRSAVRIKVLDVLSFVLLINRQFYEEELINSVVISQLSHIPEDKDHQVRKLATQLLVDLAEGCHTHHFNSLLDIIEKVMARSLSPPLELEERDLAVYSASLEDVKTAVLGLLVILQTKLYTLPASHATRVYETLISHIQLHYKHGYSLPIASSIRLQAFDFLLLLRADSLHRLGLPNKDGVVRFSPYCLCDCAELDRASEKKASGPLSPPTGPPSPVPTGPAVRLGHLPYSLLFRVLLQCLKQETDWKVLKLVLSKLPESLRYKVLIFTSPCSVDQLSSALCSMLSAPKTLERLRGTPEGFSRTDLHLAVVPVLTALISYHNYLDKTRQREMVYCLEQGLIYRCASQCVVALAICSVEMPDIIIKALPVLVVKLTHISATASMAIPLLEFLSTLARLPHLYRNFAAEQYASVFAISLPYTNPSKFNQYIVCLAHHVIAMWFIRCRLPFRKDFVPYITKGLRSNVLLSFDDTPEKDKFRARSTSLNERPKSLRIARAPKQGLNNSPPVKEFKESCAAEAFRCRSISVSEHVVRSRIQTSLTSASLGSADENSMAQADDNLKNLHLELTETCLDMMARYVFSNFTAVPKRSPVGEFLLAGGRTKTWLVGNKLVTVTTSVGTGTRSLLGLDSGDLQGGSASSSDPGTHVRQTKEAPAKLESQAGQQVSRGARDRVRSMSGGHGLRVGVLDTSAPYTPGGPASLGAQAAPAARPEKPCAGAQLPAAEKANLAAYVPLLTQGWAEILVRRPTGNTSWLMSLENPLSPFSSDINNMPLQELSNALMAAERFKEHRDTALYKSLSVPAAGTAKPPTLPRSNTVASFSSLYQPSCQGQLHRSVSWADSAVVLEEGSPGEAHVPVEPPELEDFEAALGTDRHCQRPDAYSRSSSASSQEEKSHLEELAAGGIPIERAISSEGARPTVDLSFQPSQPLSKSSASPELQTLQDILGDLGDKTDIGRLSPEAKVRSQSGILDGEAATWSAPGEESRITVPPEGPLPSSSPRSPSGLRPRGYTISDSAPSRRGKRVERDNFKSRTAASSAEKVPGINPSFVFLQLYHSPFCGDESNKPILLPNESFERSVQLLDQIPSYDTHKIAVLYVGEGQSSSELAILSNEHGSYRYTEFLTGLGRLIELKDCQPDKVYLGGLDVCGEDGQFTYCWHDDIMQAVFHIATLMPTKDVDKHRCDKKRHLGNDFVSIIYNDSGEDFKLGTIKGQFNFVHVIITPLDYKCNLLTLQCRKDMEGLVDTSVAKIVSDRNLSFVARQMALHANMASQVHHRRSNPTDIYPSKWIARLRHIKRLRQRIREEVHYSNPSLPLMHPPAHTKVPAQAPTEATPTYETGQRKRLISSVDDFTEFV

Tuberin (Rattus norvegicus (Rat)), P49816 S1389A
effect of a mutation on the interaction: disrupting interaction
